# Patent publication US8993839B2, “Plant-based production of heterologous proteins” (The Regents of the University of California, priority 2010, dated 2015)
# B1: Acidothermus cellulolyticus β-1,4-endoglucanase E1 (P. pastoris-produced) (Acidothermus cellulolyticus 11B) (protein)
# chain: AGGGYWHTSGREILDANNVPVRIAGINWFGFETCNYVVHGLWSRDYRSMLDQIKSLGYNTIRLPYSDDILKPGTMPNSINFYQMNQDLQGLTSLQVMDKIVAYAGQIGLRIILDRHRPDCSGQSALWYTSSVSEATWISDLQALAQRYKGNPTVVGFDLHNEPHDPACWGCGDPSIDWRLAAERAGNAVLSVNPNLLIFVEGVQSYNGDSYWWGGNLQGAGQYPVVLNVPNRLVYSAHDYATSVYPQTWFSDPTFPNNMPGIWNKNWGYLFNQNIAPVWLGEFGTTLQSTTDQTWLKTLVQYLRPTAQYGADSFQWTFWSWNPDSGDTGGILKDDWQTVDTVKDGYLAPIKSSIFDPVGASASPSSQPSPSVSPSPSPSPSASRTPTPTPTPTASPTPTLTPTATPTPTASPTPSPTAASGARCTASYQVNSDWGNGFTVTVAVTNSGSVATKTWTVSWTFGGNQTITNSWNAAVTQNGQSVTARNMSYNNVIQPGQNTTFGFQASYTGSNAAPTVACAASHHHHHH
# Substrate: Cc1cc(=O)oc2cc(O[C@@H]3O[C@H](CO)[C@@H](O[C@@H]4O[C@H](CO)[C@@H](O)[C@H](O)[C@H]4O)[C@H](O)[C@H]3O)ccc12
# Experiment: Michaelis-Menten kinetics of purified E1 (produced in P. pastoris, IMAC purified): cleavage of MUC to cellobiose and MU at various temperatures
# Type: biochemical, Acidothermus cellulolyticus
# Settings: substrate MUC, from Lineweaver-Burk fit
# Protocol: Endoglucanase activity assay: Endoglucanase (E1) cleaves methylumbelliferyl-tagged cellobiose (MUC), releasing methylumbelliferone (MU). The MU fluorescence can be measured to determine E1 activity. The relative fluorescence readings of 0.024 to 3.0 μM MU solutions were used to create a linear standard curve. Samples containing E1 were diluted so the concentration of MU released fell within the standard curve. A 60 μl aliquot of diluted supernatant was added to 540 μl of acetate buffer (200 mM acetate, pH 5.5, 100 mM NaCl) and 200 μl of substrate (500 μM MUC). 200 μl of reaction was sampled at time zero and after 30 minutes and added to 800 μl of stop buffer (150 mM glycine, pH 10). The change in fluorescence over time was measured with a VersaFluor fluorometer (Bio-Rad). Fluorescence was converted to an activity, and the specific activity reported in the literature was used to approximate the concentration of E1 in Pichia supernatants. The Michaelis-Menten kinetic parameters of purified endoglucanase were determined. The E1 was produced in P. pastoris and purified by IMAC (immobilized metal affinity chromatography). E1 cleaves the substrate (MUC) into cellobiose and a fluorophore (MU), the concentration of which can be monitored over time. When run at 65° C. and […] substrate, this is the reaction used for the activity assay for E1 in plant extracts and yeast cultures. In this set of experiments, the substrate concentration was varied to determine the kinetic parameters at different temperatures. The rate for a reaction displaying Michaelis-Menten kinetics is shown in Equation 1. The rate depends on the catalysis rate (kcat), the total enzyme concentration (ET), the adsorption/desorption rates which are lumped into the Michaelis-Menten constant (KM), and the substrate concentration (S). At high substrate concentrations (S>>KM), the rate approaches a maximum, and […] is often written as Vmax. The parameters Vmax and KM can be determined experimentally by varying the substrate concentration (S) and measuring the reaction rate (V) at each concentration. Equation 1 can be rearranged as a linear equation (Equation 2). When the reciprocal of the reaction rate (V) is plotted against the reciprocal of the substrate concentration (S), a line fitting the data points can be used to determine KM/Vmax (the slope) and 1/Vmax (y-intercept). A Bradford assay was used to determine the E1 protein concentration in each sample, and this value of ET was used to calculate the kcat values in Table 1. Table 1 depicts a summary of Michaelis-Menten parameters for E1-catalyzed degradation of MUC to MU at various temperatures.
# [1] = other: 93 °C, uncertainty approaches 100%, not used further, 93.0 °C
protein,measurement,setting,value
B1,Km,"other: 50 °C, 50.0 °C",59 ± 3 µM
same,Vmax,"other: 50 °C, 50.0 °C",0.083 µM/min
same,Km,"other: 65 °C, 65.0 °C",131 ± 4 µM
same,Vmax,"other: 65 °C, 65.0 °C",0.242 µM/min
same,Km,"other: 80 °C, 80.0 °C",372 ± 50 µM
same,Vmax,"other: 80 °C, 80.0 °C",0.523 µM/min
same,Km,[1],576 ± 570 µM
same,Vmax,[1],0.229 µM/min
